Measurements published in patent publication US7919584B1, “Methods and compositions for diagnosis and treatment of asthma” (Arbor Vita Corporation, priority 2005, dated 2011).
Ends that are not written are not given here. Peptide text beside a SMILES is read from it. * marks the point of attachment. Biotin = O=C1N[C@H]2[C@H](CS[C@H]2CCCCC(=O)*)N1

Key:
KIAA1284 = target: T1, KIAA1284 (Homo sapiens, UniProt Q9ULD6); assay: modified G assay titration, peptide vs constant GST-PDZ domain fusion; assay type: binding
T1 construct: made in house; host or cells: E. coli (DH5α, BL21 or JM109)
T1 sequence (Q9ULD6 with tags, fused parts or gaps): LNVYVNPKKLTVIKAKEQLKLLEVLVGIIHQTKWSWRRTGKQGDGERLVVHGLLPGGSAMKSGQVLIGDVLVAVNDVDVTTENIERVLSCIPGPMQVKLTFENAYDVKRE
Description: (§1) A Nunc Maxisorp 96 well Immunoplate (Nunc cat#62409-002) was coated with 100 μl of 5 μg/ml goat anti-GST polyclonal antibody (Amersham Pharmacia cat#27-457-01) and incubated overnight at 4° C. The plate was blocked by addition of 200 μl Assay Buffer (2% bovine serum albumin in PBS, pH 7.4) for 1 to 2 hours at room temperature, then washed three times in Assay Buffer.
(§2) 50 μl per well of GST-PDZ fusion proteins (5 μg/ml in Assay Buffer), or, as a negative control, GST polypeptide alone, was added to the plate, and incubated for 1 to 2 hours at 4° C.
(§3) Biotinylated peptides were prepared in Assay Buffer, in half the volume required at 40 μM. HRP-Streptavidin (Zymed cat#43-4323) was diluted 1:1000 in another half volume of Assay Buffer, then mixed with the peptides. The peptide-HRP mixtures were incubated for 20 minutes at room temperature. […]
(§4) The plate was then washed five times with room temperature PBS, and developed by addition of 100 μl/well of HRP substrate solution (3,3′,5,5′, tetramethylbensidine (TMB) (Dako cat#S1600)) for a maximum of 30 minutes in the dark at room temperature. The reaction of HRP and its substrate was terminated by addition of 100 μl of 0.18 M H2SO4 (Sigma cat#S1526), and the absorbance of each well of the plate was read at 450 nm.

GORASP1 d1 = target: T2, GORASP1 d1 (Homo sapiens, UniProt Q9BQQ3); assay: as above; assay type: binding
T2 construct: made in house; host or cells: E. coli (DH5α, BL21 or JM109)
Description: as §1, §2, §3, §4

[1] = target: T3, GST-TIP2 PDZ domain fusion protein (human, UniProt O14908 118-223); assay: modified G assay, peptide titrated against a constant amount of immobilized GST-PDZ fusion; Hill fit
T3 construct: domain: PDZ domain; not shown: glutathione-S transferase (GST) encoded by the pGEX-3X vector (Pharmacia); short vector-encoded linker
T3 sequence (looked up): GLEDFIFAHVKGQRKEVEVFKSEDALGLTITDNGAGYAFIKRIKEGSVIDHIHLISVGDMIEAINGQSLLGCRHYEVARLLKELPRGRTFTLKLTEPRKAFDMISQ

[2] = target: T4, GST-KIAA1284 PDZ domain fusion protein (human, UniProt P08515 1-218 = GST); assay: as above
T4 construct: also called PDZK6; not shown: short vector-encoded linker

[3] = target: T5, GST-GORASP1 (PDZ #1) fusion protein (human, UniProt P08515 1-218 = GST); assay: as above
T5 construct: also called GORASP1 d1; GRASP1; not shown: short vector-encoded linker (Gly-Ile, Gly-Ile-Pro-Gly-Asn or Gly-Ile-Pro, by cloning site); which one in this construct

[4] = target: T6, GST-PSD95 d2 (PDZ domain 2) fusion protein (human, UniProt P78352 147-253); assay: as above
T6 construct: domain: d2; not shown: glutathione-S transferase (GST) encoded by the pGEX-3X vector (Pharmacia); short vector-encoded linker
T6 sequence (P78352 147-253): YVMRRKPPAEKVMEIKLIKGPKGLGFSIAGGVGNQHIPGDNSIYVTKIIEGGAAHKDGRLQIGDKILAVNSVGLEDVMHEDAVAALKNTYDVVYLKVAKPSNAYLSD

T4 sequence (P08515 1-218, tags or fused parts left off): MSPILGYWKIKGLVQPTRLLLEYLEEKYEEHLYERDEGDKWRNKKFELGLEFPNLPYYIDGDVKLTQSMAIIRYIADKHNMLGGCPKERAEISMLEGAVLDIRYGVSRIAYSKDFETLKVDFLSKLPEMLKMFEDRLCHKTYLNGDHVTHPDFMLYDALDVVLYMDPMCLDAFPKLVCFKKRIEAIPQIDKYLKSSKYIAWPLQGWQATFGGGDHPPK
T5 sequence (P08515 1-218, tags or fused parts left off): as above
T2 sequence (Q9BQQ3 1-110): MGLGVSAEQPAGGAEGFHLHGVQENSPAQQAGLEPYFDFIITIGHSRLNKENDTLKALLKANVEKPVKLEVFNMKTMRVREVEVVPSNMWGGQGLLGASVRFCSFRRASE

Molecule: CC[C@H](C)[C@H](NC(=O)[C@H](CCCNC(=N)N)NC(=O)[C@H](CCCNC(=N)N)NC(=O)[C@H](CCCNC(=N)N)NC(=O)[C@H](CCC(N)=O)NC(=O)[C@H](CCCNC(=N)N)NC(=O)[C@H](CCCNC(=N)N)NC(=O)[C@H](CCCCN)NC(=O)[C@H](CCCCN)NC(=O)[C@H](CCCNC(=N)N)NC(=O)CNC(=O)[C@H](Cc1ccc(O)cc1)NC(=O)CCCC[C@@H]1SC[C@@H]2NC(=O)N[C@@H]21)C(=O)NCC(=O)N[C@@H](CCC(=O)O)C(=O)N[C@@H](CC(C)C)C(=O)N[C@@H](CCC(N)=O)C(=O)N[C@@H](CC(C)C)C(=O)N[C@@H](CO)C(=O)N[C@H](C(=O)N[C@@H](C)C(=O)O)[C@@H](C)CC [Tat-hCLCA1] (HELM PEPTIDE1{[O=C1N[C@H]2[C@H](CS[C@H]2CCCCC(=O)[*:2])N1].Y.G.R.K.K.R.R.Q.R.R.R.I.G.E.L.Q.L.S.I.A}$$$$V2.0)
- EC50 (KIAA1284): 74 nM
- EC50 (GORASP1 d1): 120 nM

B1: Tat-hCLCA1 peptide (11 residues of Tat coupled to the C-terminal 9 amino acids of hCLCA1), biotinylated (peptide)
peptide: Biotin-YGRKKRRQRRRIGELQLSIA
notes: Synthetic peptide, HPLC purified; pre-mixed with HRP-streptavidin in the modified G assay; also called Tat-hCLCA1 (SIA)
- EC50 [1]: 1100 nM
- EC50 [2]: 74 nM
- EC50 [3]: 120 nM
- EC50 [4]: 3100 nM
